± gives the uncertainty stated by the source.
B1: Ras GTPase-activating protein 1, residues 281 to 341; numbered along this chain, P20936 (parent)
chain: RRRVRAILPYTKVPDTDEISFLKGDMFIVHNELEDGWMWVTNLRTDEQGLIVEDLVEEVGR

Variants of: B1
Assay: abundance fitness (aPCA) (normalised: wild type 0, dead -1); higher = more abundant; growth selection in yeast, the domain comes from the species named
Conditions: Homo sapiens

Compared with RRRVRAILPYTKVPDTLEISFLKGDMFIVHNELEDGWMWVTNLRTDEQGLIVEDLVEEVGR, RRRVRAILPYTKVPDTIEISFLKGDMFIVHNELEDGWMWVTNLRTDEQGLIVEDLVEEVGR is lower in abundance fitness: -0.065 ± 0.033 for the first, -0.275 ± 0.033 for the second.

Compared with RRRVRAILPYTKVPDTFEISFLKGDMFIVHNELEDGWMWVTNLRTDEQGLIVEDLVEEVGR, RRRVRAILPYTKVPDTPEISFLKGDMFIVHNELEDGWMWVTNLRTDEQGLIVEDLVEEVGR is higher in abundance fitness: -0.182 ± 0.028 for the first, -0.088 ± 0.037 for the second.

RRRVRAILPYTKVPDTNEISFLKGDMFIVHNELEDGWMWVTNLRTDEQGLIVEDLVEEVGR and RRRVRAILPYTKVPDTGEISFLKGDMFIVHNELEDGWMWVTNLRTDEQGLIVEDLVEEVGR are within error of each other in abundance fitness: -0.037 ± 0.032 for the first, -0.094 ± 0.026 for the second.

RRRVRAILPYTKVPDTQEISFLKGDMFIVHNELEDGWMWVTNLRTDEQGLIVEDLVEEVGR and RRRVRAILPYTKVPNTDEISFLKGDMFIVHNELEDGWMWVTNLRTDEQGLIVEDLVEEVGR are within error of each other in abundance fitness: -0.011 ± 0.061 for the first, -0.022 ± 0.037 for the second.

Compared with RRRVRAILPYTKVPYTDEISFLKGDMFIVHNELEDGWMWVTNLRTDEQGLIVEDLVEEVGR, RRRVRAILPYTKVPGTDEISFLKGDMFIVHNELEDGWMWVTNLRTDEQGLIVEDLVEEVGR is higher in abundance fitness: -0.168 ± 0.028 for the first, -0.011 ± 0.025 for the second.

RRRVRAILPYTKVPWTDEISFLKGDMFIVHNELEDGWMWVTNLRTDEQGLIVEDLVEEVGR and RRRVRAILPYTKVPFTDEISFLKGDMFIVHNELEDGWMWVTNLRTDEQGLIVEDLVEEVGR are within error of each other in abundance fitness: -0.276 ± 0.059 for the first, -0.241 ± 0.027 for the second.

Going from RRRVRAILPYTKVPCTDEISFLKGDMFIVHNELEDGWMWVTNLRTDEQGLIVEDLVEEVGR to RRRVRAILPYTKVPVTDEISFLKGDMFIVHNELEDGWMWVTNLRTDEQGLIVEDLVEEVGR, the abundance fitness falls from -0.126 ± 0.029 to -0.577 ± 0.03.

Going from RRRVRAILPYTKVPETDEISFLKGDMFIVHNELEDGWMWVTNLRTDEQGLIVEDLVEEVGR to RRRVRAILPYTKVPHTDEISFLKGDMFIVHNELEDGWMWVTNLRTDEQGLIVEDLVEEVGR, the abundance fitness falls from 0.05 ± 0.05 to -0.04 ± 0.034.

Compared with RRRVRAILPYTKVPTTDEISFLKGDMFIVHNELEDGWMWVTNLRTDEQGLIVEDLVEEVGR, RRRVRAILPYTKVPITDEISFLKGDMFIVHNELEDGWMWVTNLRTDEQGLIVEDLVEEVGR is lower in abundance fitness: -0.213 ± 0.048 for the first, -0.518 ± 0.045 for the second.

Compared with RRRVRAILPYTKVPPTDEISFLKGDMFIVHNELEDGWMWVTNLRTDEQGLIVEDLVEEVGR, RRRVRAILPYTKVPKTDEISFLKGDMFIVHNELEDGWMWVTNLRTDEQGLIVEDLVEEVGR is higher in abundance fitness: -0.819 ± 0.071 for the first, -0.169 ± 0.079 for the second.

RRRVRAILPYTKVPLTDEISFLKGDMFIVHNELEDGWMWVTNLRTDEQGLIVEDLVEEVGR and RRRVRAILPYTKVPMTDEISFLKGDMFIVHNELEDGWMWVTNLRTDEQGLIVEDLVEEVGR are within error of each other in abundance fitness: -0.246 ± 0.033 for the first, -0.269 ± 0.077 for the second.

RRRVRAILPYTKVPATDEISFLKGDMFIVHNELEDGWMWVTNLRTDEQGLIVEDLVEEVGR and RRRVRAILPYTKVPQTDEISFLKGDMFIVHNELEDGWMWVTNLRTDEQGLIVEDLVEEVGR are within error of each other in abundance fitness: -0.129 ± 0.029 for the first, -0.207 ± 0.072 for the second.

First: RRRVRAILPYTKVPRTDEISFLKGDMFIVHNELEDGWMWVTNLRTDEQGLIVEDLVEEVGR
Second: RRRVRAILPYTKDPDTDEISFLKGDMFIVHNELEDGWMWVTNLRTDEQGLIVEDLVEEVGR
The abundance fitness of the first is lower: -0.172 ± 0.03 for the first, -0.047 ± 0.033 for the second.

RRRVRAILPYTKRPDTDEISFLKGDMFIVHNELEDGWMWVTNLRTDEQGLIVEDLVEEVGR and RRRVRAILPYTKTPDTDEISFLKGDMFIVHNELEDGWMWVTNLRTDEQGLIVEDLVEEVGR are within error of each other in abundance fitness: 0.071 ± 0.03 for the first, 0.084 ± 0.03 for the second.

Compared with RRRVRAILPYTKPPDTDEISFLKGDMFIVHNELEDGWMWVTNLRTDEQGLIVEDLVEEVGR, RRRVRAILPYTKEPDTDEISFLKGDMFIVHNELEDGWMWVTNLRTDEQGLIVEDLVEEVGR is higher in abundance fitness: -0.34 ± 0.042 for the first, 0.019 ± 0.047 for the second.

RRRVRAILPYTKGPDTDEISFLKGDMFIVHNELEDGWMWVTNLRTDEQGLIVEDLVEEVGR and RRRVRAILPYTKIPDTDEISFLKGDMFIVHNELEDGWMWVTNLRTDEQGLIVEDLVEEVGR are within error of each other in abundance fitness: -0.04 ± 0.025 for the first, -0.019 ± 0.029 for the second.

First: RRRVRAILPYTKNPDTDEISFLKGDMFIVHNELEDGWMWVTNLRTDEQGLIVEDLVEEVGR
Second: RRRVRAILPYTKFPDTDEISFLKGDMFIVHNELEDGWMWVTNLRTDEQGLIVEDLVEEVGR
The abundance fitness of the first is higher: 0.058 ± 0.031 for the first, -0.185 ± 0.027 for the second.

RRRVRAILPYTKAPDTDEISFLKGDMFIVHNELEDGWMWVTNLRTDEQGLIVEDLVEEVGR and RRRVRAILPYTKKPDTDEISFLKGDMFIVHNELEDGWMWVTNLRTDEQGLIVEDLVEEVGR are within error of each other in abundance fitness: 0.018 ± 0.036 for the first, 0.02 ± 0.072 for the second.

First: RRRVRAILPYTKSPDTDEISFLKGDMFIVHNELEDGWMWVTNLRTDEQGLIVEDLVEEVGR
Second: RRRVRAILPYTKWPDTDEISFLKGDMFIVHNELEDGWMWVTNLRTDEQGLIVEDLVEEVGR
The abundance fitness of the first is higher: -0.015 ± 0.025 for the first, -0.152 ± 0.058 for the second.

First: RRRVRAILPYTKLPDTDEISFLKGDMFIVHNELEDGWMWVTNLRTDEQGLIVEDLVEEVGR
Second: RRRVRAILPYTKHPDTDEISFLKGDMFIVHNELEDGWMWVTNLRTDEQGLIVEDLVEEVGR
The abundance fitness of the first is lower: -0.053 ± 0.029 for the first, 0.012 ± 0.03 for the second.

RRRVRAILPYTKCPDTDEISFLKGDMFIVHNELEDGWMWVTNLRTDEQGLIVEDLVEEVGR and RRRVRAILPYTKQPDTDEISFLKGDMFIVHNELEDGWMWVTNLRTDEQGLIVEDLVEEVGR are within error of each other in abundance fitness: 0.015 ± 0.028 for the first, 0.025 ± 0.046 for the second.

Going from RRRVRAILPYTKMPDTDEISFLKGDMFIVHNELEDGWMWVTNLRTDEQGLIVEDLVEEVGR to RRRVRAILPYTKYPDTDEISFLKGDMFIVHNELEDGWMWVTNLRTDEQGLIVEDLVEEVGR, the abundance fitness falls from -0.013 ± 0.073 to -0.137 ± 0.028.

From the Human Domainome abundance scans (Beltran et al. 2025)
